According to the supplement of paper PMC10126150:
± gives the standard deviation of the averaged measurements.
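Also: ATP exposure 15 min at 22 °C before imaging.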

These sequences were tested on ATP (assay: switch fluorescence ratio, 500 uM ATP over buffer (Cy3 cluster intensity, sum of 5 cycles each) (fold (ratio)); higher = stronger signal-on switching upon ATP binding; sequences stand for … in TCGTCGGCAGCGTCAGATGTGTATAAGAGACAGTTTTTTTTTTTTTTTTTTTTTTTTT…TC). Settings: aptamer strand: ATP DNA aptamer (quencher-CACCTGGGGGAGTATTGCGGAGGAAGG + anchor), 100 nM annealed; ATP concentration: 500 uM.
Method in brief: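 Cy3-labelled switching-strand clusters on a modified Illumina MiSeq flow-cell were annealed to 100 nM quencher-labelled ATP aptamer, imaged in selection buffer, then imaged after 15 min with 500 uM ATP at 22 °C. Five buffer/ATP cycles ran, with NaOH stripping and re-annealing between them. The fluorescence ratio is summed target-cycle over summed buffer-cycle Cy3 intensity per cluster, averaged per switch-domain sequence. Clusters outside 100-1000 RFU were excluded.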
Work on TCATTCGGAG yielded a switch fluorescence ratio of 1.02 ± 0.014. GCCTTGCCTT showed a switch fluorescence ratio of 1.03 ± 0.013. Work on GAGAATCCGG yielded a switch fluorescence ratio of 1 ± 0.087. ATTTAGTTCT showed a switch fluorescence ratio of 0.981 ± 0.027. With AGGGGGGCTA the switch fluorescence ratio was 0.991 ± 0.038. Sequence TTACGGTAAC has a switch fluorescence ratio of 2.05 ± 1.1. Sequence GCTTTGTGTA has a switch fluorescence ratio of 1.01 ± 0.049. With TTGAGAGGGA the switch fluorescence ratio was 0.99 ± 0.019. With AATAACGAAG the switch fluorescence ratio was 1.04 ± 0.045. Work on TTCAATTTAG yielded a switch fluorescence ratio of 0.9954 ± 0.0042. GTGGGATGTT was tested, and the switch fluorescence ratio was 1.01 ± 0.015. Sequence TGTGGGGACC has a switch fluorescence ratio of 1.05 ± 0.05. TTTCTCGTTT showed a switch fluorescence ratio of 1.006 ± 0.0072. TGGGTCTGTT gave a switch fluorescence ratio of 1.01 ± 0.046. In the case of CGTGGGGGAT, the switch fluorescence ratio is reported as 1.01 ± 0.029. With GGGTTTTGTT the switch fluorescence ratio was 1.02 ± 0.029. In the case of TCGCGTTGTG, the switch fluorescence ratio is reported as 1.02 ± 0.034. In the case of TACTTTTATT, the switch fluorescence ratio is reported as 1.026 ± 0.0066. TATTTTTTGG gave a switch fluorescence ratio of 1.02 ± 0.033. TATGATTGGG gave a switch fluorescence ratio of 1.008 ± 0.0013. Sequence CCTGAGGAGA has a switch fluorescence ratio of 1.03 ± 0.015. AGCCATTATT gave a switch fluorescence ratio of 0.976 ± 0.02. With TCATTCGTTT the switch fluorescence ratio was 1.01 ± 0.016. In the case of ATGTAGATAT, the switch fluorescence ratio is reported as 1.01 ± 0.021. TCGTAAATTT was tested, and the switch fluorescence ratio was 0.973 ± 0.055. GCTTTTACGG gave a switch fluorescence ratio of 1.07 ± 0.016. Sequence ATTTTATCTC has a switch fluorescence ratio of 1.22 ± 0.27. Sequence CGTTGCTATG has a switch fluorescence ratio of 1.01 ± 0.028. For TTTTTCTAAC, the switch fluorescence ratio was 0.996 ± 0.016. In the case of ATATCGGCAT, the switch fluorescence ratio is reported as 1.01 ± 0.035. With GAAGGGGTTA the switch fluorescence ratio was 1.03 ± 0.087. For ACTGGGGGCT, the switch fluorescence ratio was 0.975 ± 0.0098. For AGGTGAAATT, the switch fluorescence ratio was 1.11 ± 0.1. GGTATTCATT gave a switch fluorescence ratio of 0.995 ± 0.036. CGTGTGATGC was tested, and the switch fluorescence ratio was 1.05 ± 0.015. With GTTGGGGTAT the switch fluorescence ratio was 1.06 ± 0.11. Sequence AACAGCTGTG has a switch fluorescence ratio of 0.998 ± 0.013. AAAATCGAAA was tested, and the switch fluorescence ratio was 0.99 ± 0.015. Work on CGTTAGTGTA yielded a switch fluorescence ratio of 0.99 ± 0.023. With TAGGGAGGA the switch fluorescence ratio was 0.98 ± 0.022. Sequence TCATAATTGG has a switch fluorescence ratio of 1.005 ± 0.0045. TTTTTGAGTT was tested, and the switch fluorescence ratio was 0.977 ± 0.032. In the case of GCCGCAGGTC, the switch fluorescence ratio is reported as 1.23 ± 0.083. GCAAGGGGGT was tested, and the switch fluorescence ratio was 1.05 ± 0.053. In the case of AATGCGCCAG, the switch fluorescence ratio is reported as 1.03 ± 0.025. ATTACTGTGT was tested, and the switch fluorescence ratio was 0.99 ± 0.02. ATGTTTTGAA was tested, and the switch fluorescence ratio was 0.9789 ± 0.005. TTGATCGCTC gave a switch fluorescence ratio of 1.82 ± 1. With CTGTGTATGG the switch fluorescence ratio was 0.989 ± 0.036. GCAGTAATTT showed a switch fluorescence ratio of 1.49 ± 0.62. TGTTTGTCA showed a switch fluorescence ratio of 0.989 ± 0.022. Work on GGTTTAGTCA yielded a switch fluorescence ratio of 0.9719 ± 0.00067. ATATTTTTAT showed a switch fluorescence ratio of 0.987 ± 0.0082. With ATAGAAATTG the switch fluorescence ratio was 1.01 ± 0.035. Work on TTTGAGATGT yielded a switch fluorescence ratio of 1.04 ± 0.0048. In the case of AATATATCCG, the switch fluorescence ratio is reported as 1.03 ± 0.02. Sequence AAACAGCTTA has a switch fluorescence ratio of 1.05 ± 0.056. TGGCATAGGT was tested, and the switch fluorescence ratio was 1.02 ± 0.03. For TGGTTGTTGT, the switch fluorescence ratio was 0.96 ± 0.014. In the case of GGTGGGTTTT, the switch fluorescence ratio is reported as 0.99 ± 0.013. For TTTTTGTTCC, the switch fluorescence ratio was 1.08 ± 0.1. For GTTTTTGCTA, the switch fluorescence ratio was 1.01 ± 0.028. Sequence TGTAGTTGTG has a switch fluorescence ratio of 1.02 ± 0.061. Sequence CAGCTTTTCA has a switch fluorescence ratio of 1.024 ± 0.006. In the case of AGAGGCTGGT, the switch fluorescence ratio is reported as 0.992 ± 0.017. TTTAATCAAA gave a switch fluorescence ratio of 0.988 ± 0.014. TGTGAGGTGT was tested, and the switch fluorescence ratio was 1.02 ± 0.062. With GGTTTTATGA the switch fluorescence ratio was 1.002 ± 0.0062. For CATATTTTTA, the switch fluorescence ratio was 1.04 ± 0.05. Sequence ATTGCTACTT has a switch fluorescence ratio of 1.031 ± 0.0052. TTGGATATTT gave a switch fluorescence ratio of 1 ± 0.015. With CTTTCTTTGG the switch fluorescence ratio was 0.99 ± 0.018. For AAGTGACAGC, the switch fluorescence ratio was 1 ± 0.031. In the case of CAAGGAAGGA, the switch fluorescence ratio is reported as 0.9967 ± 0.005. TTGCCTGTAT showed a switch fluorescence ratio of 0.9731 ± 0.0073. TTGGAGATAT gave a switch fluorescence ratio of 1.07 ± 0.13. Sequence TGGCAGACTC has a switch fluorescence ratio of 1.28 ± 0.013. CGGTCCGGCG gave a switch fluorescence ratio of 1.012 ± 0.0011. Work on ACGTTACTAC yielded a switch fluorescence ratio of 1.52 ± 0.03. For CCTATTACA, the switch fluorescence ratio was 1.03 ± 0.026. For AGCATTTTTG, the switch fluorescence ratio was 1.024 ± 0.0035. Sequence TTATCGATGG has a switch fluorescence ratio of 0.987 ± 0.022. TTTAAGGATA was tested, and the switch fluorescence ratio was 0.9872 ± 0.0055. GGTCGGGGTC gave a switch fluorescence ratio of 0.966 ± 0.039. Sequence TGGGTTATCT has a switch fluorescence ratio of 0.972 ± 0.028.
